Molecular target: mare1_human MAPRE1 (UniProt Q15691)
Sequence (Q15691 whole entry): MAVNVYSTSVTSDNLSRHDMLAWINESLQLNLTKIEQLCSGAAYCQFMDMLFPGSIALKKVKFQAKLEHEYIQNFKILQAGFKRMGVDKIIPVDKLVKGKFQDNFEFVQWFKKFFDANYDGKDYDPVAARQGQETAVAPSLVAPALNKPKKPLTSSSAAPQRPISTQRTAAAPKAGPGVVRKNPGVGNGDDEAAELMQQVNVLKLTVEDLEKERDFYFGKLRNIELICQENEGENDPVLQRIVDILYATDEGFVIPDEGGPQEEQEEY

| Substance | effect of a mutation on the interaction |
| --- | --- |
| Desmoplakin (Homo sapiens), P15924-2 N458Y | decreasing interaction strength |
| Desmoplakin (Homo sapiens), P15924-2 I533T | decreasing interaction strength |

Source: IntAct's records for PubMed 25225338
